Data on 167 variants can be found in the Human Domainome abundance scans (Beltran et al. 2025).

B1: Zinc finger MYM-type protein 3, residues 589 to 668; numbered along this chain, Q14202 (parent)
chain: LSCHYCHSLFSGKPEVLDWQDQVFQFCCRDCCEDFKRLRGVVSQCEHCRQEKLLHEKLRFSGVEKSFCSEGCVLLYKQDF

± gives the uncertainty stated by the source.

In the series the parent is B1. The series is described as follows: abundance fitness (aPCA) (normalised: wild type 0, dead -1); higher = more abundant; growth selection in yeast, the domain comes from the species named. The settings on record: Homo sapiens.
E56M: the abundance fitness is -0.22 ± 0.22.
On to E56G, for which the abundance fitness is -0.47 ± 0.11.
With Q44D the figure was 0.204 ± 0.18.
With Q44Y the figure was 1.13 ± 0.34.
For Q44S the value was 0.39 ± 0.12.
As for S11P, the abundance fitness is -0.454 ± 0.071.
With S11Q the figure was -0.275 ± 0.14.
As for S11A, the abundance fitness is -0.374 ± 0.047.
For S11T the value was -0.155 ± 0.049; for K36R, -0.077 ± 0.038.
With K36G the figure was -0.019 ± 0.039; with K36F, -0.088 ± 0.074; with K36Q, 0.034 ± 0.048.
With K36T the figure was -0.011 ± 0.053.
As for K36Y, the abundance fitness is -0.561 ± 0.14.
On to K36W, for which the abundance fitness was -0.181 ± 0.043.
With K36I the figure was -0.313 ± 0.1; with H55F, 0.109 ± 0.12.
For H55V the value was -0.006 ± 0.14; for H55Q, -0.516 ± 0.39; for H55A, -0.286 ± 0.14.
For V16E the value was -0.072 ± 0.049; for V16T, -0.03 ± 0.055; for V16M, 0.022 ± 0.064.
On to V16C, for which the abundance fitness was -0.003 ± 0.063.
As for V16W, the abundance fitness was -0.206 ± 0.055.
For the variant G12K, the abundance fitness was -0.02 ± 0.05.
With G12W the figure was -0.27 ± 0.046.
With G12L the figure was -0.261 ± 0.046; with G12D, -0.274 ± 0.079; with G12I, -0.395 ± 0.075.
With Q78V the figure was -0.833 ± 0.16; with Q78D, 0.567 ± 0.22; with Q78C, -0.892 ± 0.35.
W19Q: the abundance fitness turned out to be 0.225 ± 0.066.
Regarding W19V, the abundance fitness amounted to 0.167 ± 0.043.
With W19D, the abundance fitness is -0.035 ± 0.16.
Take W19P: the abundance fitness is 0.224 ± 0.055.
Regarding W19N, the abundance fitness amounted to 0.225 ± 0.1.
For W19S the value was 0.365 ± 0.042; for W19H, 0.137 ± 0.16; for W19R, 0.157 ± 0.038.
As to W19E, the abundance fitness was determined as 0.201 ± 0.059.
In the case of W19T, the abundance fitness was 0.326 ± 0.051.
F67S: the abundance fitness is -0.297 ± 0.18.
With F67W the figure was -0.302 ± 0.32.
As for F67P, the abundance fitness is -0.47 ± 0.19.
For H47P the value was -0.742 ± 0.42; for H47K, 0.075 ± 0.29.
Take H47R: the abundance fitness was -0.098 ± 0.089.
With H47V the figure was 0.075 ± 0.2; with H47W, 0.246 ± 0.13; with D18S, 0.017 ± 0.048.
In the case of D18G, the abundance fitness was -0.083 ± 0.051.
With D18V, the abundance fitness is -0.073 ± 0.059.
With D18Y the figure was -0.127 ± 0.053; with D18I, -0.039 ± 0.071.
With D18N the figure was 0.138 ± 0.095; with H4G, 0.29 ± 0.038.
In the case of H4Q, the abundance fitness was found to be 0.088 ± 0.046.
For H4A the value was 0.28 ± 0.039; for H4F, 0.128 ± 0.072; for H4I, -0.064 ± 0.073.
With Q20P the figure was 0.179 ± 0.091; with Q20H, -0.021 ± 0.15; with Q20F, 0.198 ± 0.1.
Consider Q20E, for which the abundance fitness worked out at 0.492 ± 0.05.
Regarding Q20R, the abundance fitness stood at 0.151 ± 0.043.
Regarding G62P, the abundance fitness is -1.01 ± 0.25.
With G62R the figure was -0.788 ± 0.2; with G62E, 0.013 ± 0.19; with G62Q, -0.865 ± 0.36.
As for C68W, the abundance fitness was -1.18 ± 0.37.
For C68R the value was -0.892 ± 0.28; for C68S, -0.619 ± 0.21; for C68K, -0.525 ± 0.24.
For the variant E33W, the abundance fitness is -0.254 ± 0.047.
For E33D the value was 0.072 ± 0.056.
For the variant E33H, the abundance fitness came to 0.124 ± 0.064.
For E33Q the value was -0.038 ± 0.044; for L9E, -0.021 ± 0.044.
For L9C the value was -0.184 ± 0.066; for L9D, -0.073 ± 0.056.
For L9G the value was 0.121 ± 0.038.
Take L9R: the abundance fitness is -0.012 ± 0.04.
With L9S, the abundance fitness was found to be 0.009 ± 0.048.
With L1W the figure was -0.641 ± 0.079; with L1C, 0.004 ± 0.074; with L1F, 0.279 ± 0.073.
With L54V the figure was -0.046 ± 0.091; with L54T, -0.226 ± 0.45; with S43L, -0.576 ± 0.19.
Take S43M: the abundance fitness was 0.105 ± 0.11.
In the case of V41G, the abundance fitness turned out to be 0.056 ± 0.098.
In the case of V41R, the abundance fitness was determined as 0.003 ± 0.14.
In the case of V41A, the abundance fitness is -0.208 ± 0.41.
As for V41T, the abundance fitness was -0.243 ± 0.41.
Consider D30V, for which the abundance fitness stood at 0.109 ± 0.04.
For D30N, the abundance fitness was -0.069 ± 0.1.
D30Y: the abundance fitness is -0.164 ± 0.091.
With D30Q the figure was -0.036 ± 0.054.
With P14G the figure was -0.206 ± 0.042.
For P14S the value was -0.386 ± 0.056.
For the variant P14N, the abundance fitness was -0.153 ± 0.24.
Consider P14F, for which the abundance fitness was -0.371 ± 0.21.
With P14T the figure was -0.381 ± 0.079; with P14C, -0.6 ± 0.13; with P14D, -0.24 ± 0.077.
On to P14Q, for which the abundance fitness was -0.39 ± 0.071.
As for P14W, the abundance fitness was -0.528 ± 0.061.
For Q50G the value was -0.436 ± 0.094.
For Q50C the value was -0.013 ± 0.24; for Q50Y, -0.312 ± 0.21; for H7D, 0.226 ± 0.07.
For H7E the value was 0.158 ± 0.06; for H7V, -0.145 ± 0.05.
With H7R, the abundance fitness worked out at 0.049 ± 0.046.
With R49K the figure was -0.084 ± 0.19.
Consider R49F, for which the abundance fitness was -0.38 ± 0.2.
For R49E the value was -0.361 ± 0.18; for R49S, 0.283 ± 0.14; for L53W, -0.676 ± 0.14.
For L53M the value was -0.234 ± 0.23; for L53T, -0.196 ± 0.27; for L53A, -0.313 ± 0.14.
In the case of L53V, the abundance fitness was -0.056 ± 0.092.
As to L53N, the abundance fitness was -0.163 ± 0.45.
With L53R the figure was -0.327 ± 0.11.
Turning to D79E, the abundance fitness is 0.018 ± 0.15.
For D79S, the abundance fitness was 0.241 ± 0.15.
For C3F the value was -0.63 ± 0.11; for C3I, -1.02 ± 0.26; for C3M, -0.505 ± 0.077.
With C3V the figure was -0.871 ± 0.074.
Turning to C3G, the abundance fitness is -1.01 ± 0.088.
For C3Y, the abundance fitness is -0.984 ± 0.18.
With C3N the figure was -1.11 ± 0.23; with C3H, -1.17 ± 0.42.
With C3P, the abundance fitness is -1.06 ± 0.12.
For V42R the value was -0.085 ± 0.088; for V42Q, -0.203 ± 0.24.
With V42P the figure was 0.176 ± 0.48; with L74S, -0.081 ± 0.19.
With L74G, the abundance fitness turned out to be 0.183 ± 0.099.
For L74A the value was 0.404 ± 0.077; for L74R, 0.484 ± 0.08; for L74E, 0.662 ± 0.091.
For R37Q the value was 0.254 ± 0.12; for R37V, 0.097 ± 0.1; for R37D, -0.238 ± 0.19.
With V73A, the abundance fitness is 0.236 ± 0.086.
With V73S, the abundance fitness was determined as 0.167 ± 0.093.
With Y76S the figure was -0.473 ± 0.16; with Y76D, -0.176 ± 0.17.
For Y76E, the abundance fitness was -0.107 ± 0.11.
Take R29I: the abundance fitness came to 0.014 ± 0.055.
For R29H the value was 0.275 ± 0.058; for R29A, 0.069 ± 0.042; for R29W, -0.049 ± 0.047.
With Q22E the figure was 0.313 ± 0.047.
For Q22R the value was 0.165 ± 0.038.
Take Q22Y: the abundance fitness stood at 0.101 ± 0.061.
With Q22G the figure was 0.253 ± 0.041; with C27P, -0.483 ± 0.062.
With C27D the figure was -0.352 ± 0.078; with C27S, -0.892 ± 0.086.
With C27G the figure was -0.572 ± 0.048.
